The target in the assay is T1, IL-17RC-FL (murine IL-17RC, full length, unspliced, C-terminal Myc tag) (mouse, UniProt Q8K4C2 22-698).
T1 sequence (looked up): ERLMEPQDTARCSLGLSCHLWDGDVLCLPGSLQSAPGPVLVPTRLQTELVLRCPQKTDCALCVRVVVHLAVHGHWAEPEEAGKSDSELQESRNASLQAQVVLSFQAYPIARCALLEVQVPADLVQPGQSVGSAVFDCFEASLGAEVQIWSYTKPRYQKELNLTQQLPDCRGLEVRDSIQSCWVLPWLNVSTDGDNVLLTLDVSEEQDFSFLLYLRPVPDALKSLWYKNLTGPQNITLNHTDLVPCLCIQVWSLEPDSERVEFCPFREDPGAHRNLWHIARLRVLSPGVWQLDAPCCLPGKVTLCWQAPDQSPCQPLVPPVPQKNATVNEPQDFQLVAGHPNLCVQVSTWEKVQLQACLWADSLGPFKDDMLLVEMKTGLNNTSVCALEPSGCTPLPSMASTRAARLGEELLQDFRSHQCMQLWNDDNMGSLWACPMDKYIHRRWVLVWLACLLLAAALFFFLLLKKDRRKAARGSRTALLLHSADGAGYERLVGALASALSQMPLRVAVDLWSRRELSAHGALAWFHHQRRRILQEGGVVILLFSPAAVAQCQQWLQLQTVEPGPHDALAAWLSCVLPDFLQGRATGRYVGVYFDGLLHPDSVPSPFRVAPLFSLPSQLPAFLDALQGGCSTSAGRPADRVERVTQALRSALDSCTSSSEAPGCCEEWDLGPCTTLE
The assay can be described thus: co-IP.

B1: CFP-tagged murine Act1, larger phosphorylated isoform (phospho-Act1) (natural protein, mouse, UniProt Q8N7N6 1-555, looked up)
chain: MNRSIPVEVDESEPFPSQLLKPIPEYSPEEELEPPAPNTRNMAPSSLSVLQCPPLKLANHQPVSQQVTCLRAKVLEEGEASFFRRHPELGKDISSCSSGASEPESELGALPPEHRFTLTEKRNRWLGSQLSAASPDTGHESDKSDPSLPNALADSFSGGQEMMPRPRPRPGPHRHRAAPDVPTIDTGYDSQPQDVLGIRQLERPLPLTSSCYLQDLPGPLRSRELPPQFELERYPMNAQLLPPHPSPQAPWNCQYYCPGGPYHHQVPHGHGYPPAAAYQQVLQPALPGQVLPGARARGPRPVQKVILNDSSPQDQEERPAQRDFSFPRLPRDQLYRPPSNGVEAPEESLDLPAELRPHGPQAPSLAAVPRPPSNPLARGTLRTSNLPEELRKVFITYSMDTAMEVVKFVNFLLVNGFQTAIDIFEDRIRGIDIIKWMERYLRDKTVMIIVAISPKYKQDVEGAESQLDEDEHGLHTKYIHRMMQIEFISQGSMNFRFIPVLFPNAKKEHVPTWLQNTHVYSWPKNKKNILLRLLREEEYVAPPRGPLPTLQVVPL
modifications: phosphorylated (removed by shrimp alkaline phosphatase; sites not stated)
Turning to B1, the “fold induction of co-precipitated phospho-Act1 over the 0 time point” value is about 6 fold.

For the origin of these results see article PMC2897912 (Journal of immunology (Baltimore, Md. : 1950), 2010).
